The chains are these.
T1: TC-Cbl (recombinant human transcobalamin saturated with cobalamin) (human, UniProt P20062 19-427)
T1 construct: also called holo-TC; holoTc
T1 sequence (looked up): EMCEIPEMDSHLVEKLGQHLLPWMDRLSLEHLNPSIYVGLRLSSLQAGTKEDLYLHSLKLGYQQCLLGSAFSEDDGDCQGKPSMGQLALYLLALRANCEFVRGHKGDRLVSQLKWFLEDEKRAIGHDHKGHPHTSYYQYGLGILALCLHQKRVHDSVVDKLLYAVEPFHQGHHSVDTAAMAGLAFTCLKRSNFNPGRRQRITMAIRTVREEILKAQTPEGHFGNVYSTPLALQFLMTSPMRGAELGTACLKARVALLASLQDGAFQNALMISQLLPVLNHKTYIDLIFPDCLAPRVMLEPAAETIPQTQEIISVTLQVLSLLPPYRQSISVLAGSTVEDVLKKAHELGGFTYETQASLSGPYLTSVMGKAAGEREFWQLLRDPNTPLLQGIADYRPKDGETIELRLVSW

T2: TCblR 32-233-mycHis (human, UniProt Q9NPF0 32-233)
T2 construct: Secreted, expressed in HEK293 cells, used as culture medium; also called extracellular TCblR in pcDNA3.1 (-) mycHisA
T2 sequence: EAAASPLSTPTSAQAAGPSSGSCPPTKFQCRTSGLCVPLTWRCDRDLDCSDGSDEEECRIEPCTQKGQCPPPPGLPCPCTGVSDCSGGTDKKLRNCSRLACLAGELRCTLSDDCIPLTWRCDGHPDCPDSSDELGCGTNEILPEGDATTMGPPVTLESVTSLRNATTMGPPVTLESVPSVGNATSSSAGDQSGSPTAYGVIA

B1: TCblR with the cytoplasmic tail deleted, on HEK293 cells (receptor)
chain: EAAASPLSTPTSAQAAGPSSGSCPPTKFQCRTSGLCVPLTWRCDRDLDCSDGSDEEECRIEPCTQKGQCPPPPGLPCPCTGVSDCSGGTDKKLRNCSRLACLAGELRCTLSDDCIPLTWRCDGHPDCPDSSDELGCGTNEILPEGDATTMGPPVTLESVTSLRNATTMGPPVTLESVPSVGNATSSSAGDQSGSPTAYGVIAAAAVLSASLVTATLLLL
notes: Limits derived; also called TCblR without the cytoplasmic domain; membrane-anchored receptor
B2: TCblR 32-137, 166-233-mycHis (receptor, not shown: small tags and cut ends)
chain: EAAASPLSTPTSAQAAGPSSGSCPPTKFQCRTSGLCVPLTWRCDRDLDCSDGSDEEECRIEPCTQKGQCPPPPGLPCPCTGVSDCSGGTDKKLRNCSRLACLAGELGCGTNEILPEGDATTMGPPVTLESVTSLRNATTMGPPVTLESVPSVGNATSSSAGDQSGSPTAYGVIA
notes: Secreted, expressed in HEK293 cells, used as culture medium; also called second LDLR-A domain removed
B3: recombinant extracellular domain of human TCblR (aa 32-233), untagged secreted form (receptor)
chain: T2 sequence
notes: Expressed in HEK 293 cells and secreted into the culture medium; also called TCblR ECD; extracellular TCblR
B4: extracellular TCblR mycHis mutant pDE85, 86>LL (receptor, not shown: small tags and cut ends)
chain: T2 sequence with D54L, E55L
notes: Made on the extracellular TCblR cDNA in pcDNA3.1 (-) mycHisA, expressed in HEK293 cells; also called D85L, E86L
B5: extracellular TCblR mycHis mutant pDE163, 164>LL (receptor, not shown: small tags and cut ends)
chain: T2 sequence with D132L, E133L
notes: Made on the extracellular TCblR cDNA in pcDNA3.1 (-) mycHisA, expressed in HEK293 cells; also called D163L, E164L
B6: truncated TCblR 32-183 (receptor)
chain: not shown
notes: Secreted C-terminal deletion of the extracellular domain, expressed in HEK293 cells, used as culture medium; also called C-terminal 49 aa deleted (two N-glycosylation sites removed)
B7: mAb 1-25 (antibody, V domains shown)
VH: DVQLQESGPDLVKPSQSLSITCTVTGYSITSDYSWHWIRQFPGNKLEWMGYIHSSGITNYNPSLKSRISITRDTSKNQFFLHLSSMTNEDTATYYCTRPPVVTRYFDVWGAGTTVTVSS
VL: DIVMTQSPSSLTVTAGEKVTMSCKSSQGLLDSGNQKNYLTWYQQKPGQPPKLLIYWASTRKSGVPDRFTGSGSGTDFTLTISSVQAEDLAVYYCQNDYTYPLTFGAGTKLELK
notes: also called TCblRKB1-25
B8: mAb 1-23 (antibody, V domains shown)
VH: DVQLQESGPGLVKPSQSLSLTCTVTGYSITSDYAWNWIRQFPGNKLEWMGYIAYTNRTFYTPSLESRISITRDTSKNQFFLQLNSVTTEDTGTYYCARNSGKTYGFTYWGQGTLVTVSA
VL: DIVMSQSPSSLVVSIGEKVTMSCKSSQRLLYSANQKNYLAWYQQKPGQSPKLLIYWASTRESGVPDRFTGSGSGTDFTLTISSVRAEDLALYYCQQFYNYPLTFGSGTKLEIK
B9: mAb 1-19 (antibody, V domains shown)
VH: DVQLQESGPGLVKPSQSLSLTCTVLGYSITSDYAWNWIRQFPGNKLEWMGYISFSGNIRYNPSLESRISITRDTSKSQFFLQLNSVTTEDRGTYYCARAGLGRVFYFDYWGQGTALTVSS
VL: DIVMSQSPSSLAVSVGEKVTMSCKSSQSLLYSSNQKNYLAWYQQKPGQSPQLLIFRASTRESGVPDRFTGSGSGTDFTLTISSVKPEDLAVYFCQQYYNYPFTFGSGTTLEIK
notes: also called TCblRKB 1-19; monoclonal antibody 1-19
B10: truncated TCblR 32-149 (receptor)
chain: not shown
notes: Secreted C-terminal deletion of the extracellular domain, expressed in HEK293 cells, used as culture medium; also called aa 150-233 deleted
B11: TCblR 32-52, 64-233-mycHis (receptor, not shown: small tags and cut ends)
chain: EAAASPLSTPTSAQAAGPSSGSGLCVPLTWRCDRDLDCSDGSDEEECRIEPCTQKGQCPPPPGLPCPCTGVSDCSGGTDKKLRNCSRLACLAGELRCTLSDDCIPLTWRCDGHPDCPDSSDELGCGTNEILPEGDATTMGPPVTLESVTSLRNATTMGPPVTLESVPSVGNATSSSAGDQSGSPTAYGVIA
notes: Secreted, expressed in HEK293 cells, used as culture medium; also called p53-63del; N-terminal 11 residues (aa 53-63) of the first LDLR-A domain deleted

In assay [1] the target is T1, TC-Cbl (recombinant human …). In words: binding and internalization of TC-[57Co]Cbl by transfected HEK293 cells.
Description: Cells (0.5×10⁶) were seeded in complete DMEM with 10% FBS and 2 mM glutamine in six-well plates. […] After 1 h incubation at 37° C., medium was removed and cell layer was washed twice with 2 ml HBSS. Then 0.3 ml Trypsin/EDTA was added to the wells and incubated for 10 min at 37° C. followed by1ml HBSS/5 mM EDTA. The detached cells were collected by centrifugation for 5 min, at 3,000 rpm, 4° C.
The target is the same in assay [2]. In words: radiolabelled TC-Cbl binding to deletion constructs.
Assay [3] shares this target. The assay can be described thus: radiolabelled TC-Cbl binding, WGA-agarose separation.
Description: (§1) The intact secreted form of extracellular TCblR served as the positive control and normal HEK293 culture medium served as the negative control.
(§2) The matrix is pelleted by centrifuging at 1,000 g for 5 min and washed twice with 1 ml assay buffer.
Assay [4] shares this target. The assay can be described thus: radiolabelled TC-Cbl binding to mutated secreted receptor.
Excerpt: as §1
HEK293 cells were transfected with the mutated constructs to produce mutated receptor proteins.
The target is the same in assay [5]. In words: radiolabelled TC-Cbl binding, indirect competition with full-length secreted TCblR.
Description: as §2
Assay [6] has as its target B10. The assay can be described thus: sandwich ELISA, mAb as capture. In general terms: An ELISA detects its analyte on a solid surface through an enzyme-linked reagent.
Description: (§3) A sandwich ELISA based assay was utilized to identify the antigen binding epitopes by reacting the antibodies with various truncated forms of the receptor. […] Culture medium containing the truncated TCblR was incubated overnight and the captured TCblR antigen was detected with a goat polyclonal antibody (anti-8D6, R&D Systems) to the antigen. Peroxidase-labeled horse anti-goat IgG (Vector) was used for detecting the binding of the polyclonal antibody as described above.
(§4) The recombinant extracellular domain of TCblR and its various carboxy terminal deletion constructs provided the antigens to map the antibody binding sites on this protein. The sandwich assay developed herein utilized purified mAbs immobilized in ELISA plates to capture the TCblR antigen in culture medium, which was then reacted with a polyclonal goat anti-human TCblR to identify the captured antigen. This strategy provided a detailed profile of antibodies binding to truncated forms of the receptor.
The target of assay [7] is B2. The assay can be described thus: sandwich ELISA, mAb as capture.
Description: as §3, §4
The target of assay [8] is B3. The assay can be described thus: sandwich ELISA, mAb as capture, TCblR construct in HEK293 medium; +++ OD 2-3, ++ OD 1-2, + OD 0.5-1, - OD <0.5.
For assay [9], the target named is B6. The assay is described as above.
In assay [10] the target is T2, TCblR 32-233-mycHis. The description is as above.
In assay [11] the target is T3, TCblR 32-94, 142-233-mycHis (human, UniProt Q9NPF0 32-233).
T3 construct: also called TCblR without the CUB domain; region between the two LDLR-A domains deleted
The assay is described as above.

Assay [12] concerns the target B11. Described as above.
Assay [13] concerns the target B6. The assay can be described thus: sandwich ELISA, mAb as capture.
Description: as §3, §4
Assay [14] addresses B2. In words: sandwich ELISA, mAb as capture, TCblR construct in HEK293 medium; +++ OD 2-3, ++ OD 1-2, + OD 0.5-1, - OD <0.5.

Changes are numbered by the printed parent chain. Names may count otherwise.

Turning to B1, the binding result in [1] is “binds”.
For the molecule B2, the binding result in assay [2] was “no binding”.
As for B3, the binding result in [3] was “binds”.
Consider B4, for which the binding result in [4] is on record as “no binding”.
Still for that read-out and setting: next, B5: “no binding”.
On to B6, for which the binding result in assay [5] is on record as “binds”.
As for B7, the OD in [6] was less than 0.5 od; in assay [7], less than 0.5 od; in assay [8] it was 1 to 2 od; in [9], 2 to 3 od; in assay [10], 1 to 2 od; in assay [11] it was 0.5 to 1 od. The OD in assay [12] lay in the range of 2 to 3 od.
For the molecule B8, the OD was less than 0.5 od in [13]; less than 0.5 od in assay [6]; 1 to 2 od in [8]; 1 to 2 od in assay [10]; 1 to 2 od in assay [11]; 1 to 2 od in [14]. Also, in assay [12], the OD is 1 to 2 od.
With B9, the OD in assay [13] is less than 0.5 od; in [6] it was less than 0.5 od; in assay [8], 1 to 2 od; in assay [10], 2 to 3 od; in assay [11] it was 1 to 2 od; in assay [14], 1 to 2 od. Also, in assay [12], the OD lay in the range of 2 to 3 od.
Consider B10, for which, in assay [5], the binding result is on record as “no binding”.
Take B11: in assay [3], the binding result was “no binding”.

The values above are taken from US20130164309A1 (RESEARCH FOUNDATION OF STATE UNIVERSITY OF NEW YORK, published 2013).
